{"source": "patent US20220242973A1", "about": "(Molecular Partners, published 2022)", "binders": {"B1": {"name": "DARPin® protein #41 (designed binder)", "chain": "MRGSHHHHHHGSDLGKKLLEAARAGQDDEVRELLKAGADVNAKDYFSHTPLHLAARNGHLKIVEVLLKAGADVNAKDFAGKTPLHLAANEGHLEIVEVLLKAGADVNAQDIFGKTPADIAADAGHEDIAEVLQKAAGSPTPTPTTPTPTPTTPTPTPTGSDLGEKLLVAALYGQDDEVRILLAAGADVNAKDQWGLTPLHKAALQGHLEIVEVLLKAGADVNAKDERGHTPLHWAARFGHLEIVEVLLKAGADVNAQDQKGYTPADLAALWGHEDIAEVLQKAA", "notes": "Fusion of a serum albumin-specific and a FAP-specific ankyrin repeat domain"}}, "key": {"[1]": {"molecular_target": "T1, Recombinant mouse FAP (mouse, UniProt P97321 26-761)", "T1 construct": "Bought soluble recombinant protein; also called mFAP", "T1 sequence (looked up)": "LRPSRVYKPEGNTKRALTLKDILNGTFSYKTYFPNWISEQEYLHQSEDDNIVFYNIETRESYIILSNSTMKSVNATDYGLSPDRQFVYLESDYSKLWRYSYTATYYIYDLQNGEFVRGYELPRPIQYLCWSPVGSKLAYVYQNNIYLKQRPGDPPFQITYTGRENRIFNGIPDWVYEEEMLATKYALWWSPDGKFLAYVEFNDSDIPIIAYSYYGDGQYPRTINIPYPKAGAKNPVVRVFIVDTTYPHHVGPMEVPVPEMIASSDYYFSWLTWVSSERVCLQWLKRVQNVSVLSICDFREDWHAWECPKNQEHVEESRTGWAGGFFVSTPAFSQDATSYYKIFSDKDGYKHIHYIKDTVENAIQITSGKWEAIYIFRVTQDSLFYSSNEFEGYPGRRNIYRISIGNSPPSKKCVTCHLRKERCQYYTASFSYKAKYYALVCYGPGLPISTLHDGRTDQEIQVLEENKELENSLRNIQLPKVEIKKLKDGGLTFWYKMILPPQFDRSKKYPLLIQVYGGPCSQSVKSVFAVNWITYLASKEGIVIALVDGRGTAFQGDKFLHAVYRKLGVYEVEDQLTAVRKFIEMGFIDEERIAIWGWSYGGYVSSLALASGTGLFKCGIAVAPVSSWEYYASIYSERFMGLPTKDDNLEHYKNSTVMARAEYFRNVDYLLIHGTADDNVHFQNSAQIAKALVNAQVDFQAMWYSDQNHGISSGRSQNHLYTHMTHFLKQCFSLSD", "assay": "SPR (ProteOn), mouse FAP immobilized on GLC chip", "procedure": "Briefly, mouse FAP was diluted in 10 mM Na-acetate pH5.3 buffer and covalently immobilized on a GLC chip (BioRad) to a level of around 2000 resonance units (RU). The interaction of DARPin® protein #41 and mFAP was then measured by injecting 200 μl running buffer (PBS, pH7.4 containing 0.005% Tween20®) containing serial dilutions of DARPin® protein #41 covering a concentration range between 50 nM and 3 nM (on-rate measurement), followed by a running buffer flow for 30 minutes at a constant flow rate of 100 μl/min (off-rate measurement). The regeneration was performed using 15 μl of 10 mM Glycine pH 2 followed by 15 μl of 124 mM H₃PO₄. The signals (i.e. resonance unit (RU) values) of the interspots and a reference injection (i.e. injection of running buffer only) were subtracted from the RU traces obtained after injection of DARPin® protein #41 (double-referencing). The binding of DARPin® protein #41 to hFAP was determined as described in Example 2.\nDissociation constants (KD) were calculated from the estimated on- and off-rates using standard procedures known to the person skilled in the art and are reported in Table 7. […] The dissociation constant of DARPin® protein #41 for binding to mouse FAP was determined to be 1.3 nM."}, "[2]": {"molecular_target": "T2, Recombinant human FAP (fibroblast activation protein) (human, UniProt Q12884 26-760)", "T2 construct": "Bought soluble recombinant protein; Chemically biotinylated for the HTRF screen; also called hFAP; biotinylated human FAP", "T2 sequence (looked up)": "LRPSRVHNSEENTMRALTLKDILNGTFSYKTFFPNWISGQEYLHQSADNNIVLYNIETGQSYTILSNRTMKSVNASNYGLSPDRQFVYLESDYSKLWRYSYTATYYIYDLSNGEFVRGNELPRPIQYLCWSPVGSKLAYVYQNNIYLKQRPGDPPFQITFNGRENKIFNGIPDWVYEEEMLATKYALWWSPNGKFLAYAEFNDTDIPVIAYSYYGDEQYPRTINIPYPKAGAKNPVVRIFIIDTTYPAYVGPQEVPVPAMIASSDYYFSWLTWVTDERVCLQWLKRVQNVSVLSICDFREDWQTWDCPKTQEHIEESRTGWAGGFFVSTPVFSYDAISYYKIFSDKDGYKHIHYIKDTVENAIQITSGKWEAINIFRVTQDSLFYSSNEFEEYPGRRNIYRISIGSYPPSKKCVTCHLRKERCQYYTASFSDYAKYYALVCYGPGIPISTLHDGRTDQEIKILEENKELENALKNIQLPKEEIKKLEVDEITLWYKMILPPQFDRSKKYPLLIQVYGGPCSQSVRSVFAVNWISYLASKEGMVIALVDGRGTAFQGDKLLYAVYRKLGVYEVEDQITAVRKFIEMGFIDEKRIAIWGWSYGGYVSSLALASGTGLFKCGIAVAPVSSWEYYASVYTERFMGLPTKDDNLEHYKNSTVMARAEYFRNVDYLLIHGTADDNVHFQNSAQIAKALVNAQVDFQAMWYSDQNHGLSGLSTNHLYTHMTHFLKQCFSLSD", "assay": "SPR (ProteOn), human FAP immobilized on GLC chip", "procedure": "Briefly, human FAP was diluted in 10 mM Na-acetate pH 5.3 buffer and covalently immobilized on a GLC chip (BioRad) to a level of around 2000 resonance units (RU). The interaction of ankyrin repeat protein and hFAP was then measured by injecting 200 μl running buffer (PBS, pH 7.4 containing 0.005% Tween 20®) containing serial dilutions of ankyrin repeat proteins covering a concentration range between 30 nM and 0.5 nM (on-rate measurement), followed by a running buffer flow for at least 25 minutes at a constant flow rate of 100 μl/min (off-rate measurement). The regeneration was performed using 15 μl of 10 mM Glycine pH 2 followed by 15 μl of 124 mM H₃PO₄. […] Based on the SPR traces obtained from the on-rate and off-rate measurements, the on- and off-rate of the corresponding ankyrin repeat protein—FAP interaction was determined.\nBriefly, mouse FAP was diluted in 10 mM Na-acetate pH5.3 buffer and covalently immobilized on a GLC chip (BioRad) to a level of around 2000 resonance units (RU). The interaction of DARPin® protein #41 and mFAP was then measured by injecting 200 μl running buffer (PBS, pH7.4 containing 0.005% Tween20®) containing serial dilutions of DARPin® protein #41 covering a concentration range between 50 nM and 3 nM (on-rate measurement), followed by a running buffer flow for 30 minutes at a constant flow rate of 100 μl/min (off-rate measurement). […]"}}, "data": [{"binder": "B1", "values": [{"measurement": "Kd", "setting": "[1]", "result": 1300, "unit": "pM"}, {"measurement": "Kd", "setting": "[2]", "result": 264, "unit": "pM"}]}]}
